In patent US10562947B2, “Compositions and methods for preventing or treating diseases, conditions or processes characterized by aberrant fibroblast proliferation and extracellular matrix deposition” (MOERAE MATRIX, INC., priority 2011, dated 2020):

How the values were obtained:
Assay in all cases: Kinase Profiling Assay
Format in all cases: biochemical
Settings in all cases: 100 μM peptide
ACK1(h) = ACK1(h) (Homo sapiens, UniProt Q07912)
In short: (§1)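 Peptides designed to inhibit MK2 were checked against a broad human kinase panel (266 enzymes), with duplicate measurement of every activity.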

ALK(h) = ALK(h) (Homo sapiens, UniProt Q9UM73)
Chain of ALK(h) (Q9UM73 19-1620): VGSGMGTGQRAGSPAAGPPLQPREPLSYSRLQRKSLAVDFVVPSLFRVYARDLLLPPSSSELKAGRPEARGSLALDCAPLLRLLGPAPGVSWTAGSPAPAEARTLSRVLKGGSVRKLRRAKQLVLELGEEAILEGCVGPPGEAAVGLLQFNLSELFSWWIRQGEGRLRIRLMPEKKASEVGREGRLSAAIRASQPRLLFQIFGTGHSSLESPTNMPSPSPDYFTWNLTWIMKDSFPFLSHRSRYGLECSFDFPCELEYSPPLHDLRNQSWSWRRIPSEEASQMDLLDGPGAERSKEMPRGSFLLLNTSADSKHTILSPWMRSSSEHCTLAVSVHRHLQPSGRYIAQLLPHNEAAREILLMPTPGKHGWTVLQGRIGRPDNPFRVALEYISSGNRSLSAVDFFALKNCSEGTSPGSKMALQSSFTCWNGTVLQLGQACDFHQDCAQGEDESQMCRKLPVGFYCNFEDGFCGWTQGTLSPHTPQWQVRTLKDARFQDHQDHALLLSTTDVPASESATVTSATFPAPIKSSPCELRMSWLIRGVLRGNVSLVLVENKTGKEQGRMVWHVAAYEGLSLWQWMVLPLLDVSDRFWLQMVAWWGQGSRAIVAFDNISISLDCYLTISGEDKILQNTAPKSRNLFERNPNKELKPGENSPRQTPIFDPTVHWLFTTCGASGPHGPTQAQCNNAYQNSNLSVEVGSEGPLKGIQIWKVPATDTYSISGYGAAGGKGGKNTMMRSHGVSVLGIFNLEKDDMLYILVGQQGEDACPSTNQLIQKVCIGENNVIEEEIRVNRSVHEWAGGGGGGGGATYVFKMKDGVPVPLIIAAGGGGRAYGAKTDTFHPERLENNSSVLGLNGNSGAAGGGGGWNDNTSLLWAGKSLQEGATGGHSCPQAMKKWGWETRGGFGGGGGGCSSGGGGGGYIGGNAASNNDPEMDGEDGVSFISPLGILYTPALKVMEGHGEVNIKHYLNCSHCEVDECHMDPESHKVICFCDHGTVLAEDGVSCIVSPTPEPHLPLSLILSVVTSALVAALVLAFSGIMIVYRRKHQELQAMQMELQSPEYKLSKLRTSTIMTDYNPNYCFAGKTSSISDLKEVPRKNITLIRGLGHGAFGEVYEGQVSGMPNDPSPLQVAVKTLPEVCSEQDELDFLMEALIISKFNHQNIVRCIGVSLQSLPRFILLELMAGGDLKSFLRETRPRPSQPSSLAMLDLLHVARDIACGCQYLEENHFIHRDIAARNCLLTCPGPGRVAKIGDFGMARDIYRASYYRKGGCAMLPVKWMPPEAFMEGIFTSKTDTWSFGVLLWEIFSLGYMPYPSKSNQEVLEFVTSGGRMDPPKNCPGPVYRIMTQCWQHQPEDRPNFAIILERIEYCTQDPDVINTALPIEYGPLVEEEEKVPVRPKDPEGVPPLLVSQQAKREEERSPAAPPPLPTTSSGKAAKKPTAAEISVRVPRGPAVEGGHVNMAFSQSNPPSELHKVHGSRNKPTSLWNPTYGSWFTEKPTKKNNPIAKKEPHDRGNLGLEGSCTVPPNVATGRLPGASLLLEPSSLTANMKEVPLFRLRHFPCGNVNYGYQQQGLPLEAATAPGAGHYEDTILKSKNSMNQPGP
In short: as §1

BRK(h) = BRK(h) (Homo sapiens, UniProt Q13882)
Chain of BRK(h) (Q13882 whole entry): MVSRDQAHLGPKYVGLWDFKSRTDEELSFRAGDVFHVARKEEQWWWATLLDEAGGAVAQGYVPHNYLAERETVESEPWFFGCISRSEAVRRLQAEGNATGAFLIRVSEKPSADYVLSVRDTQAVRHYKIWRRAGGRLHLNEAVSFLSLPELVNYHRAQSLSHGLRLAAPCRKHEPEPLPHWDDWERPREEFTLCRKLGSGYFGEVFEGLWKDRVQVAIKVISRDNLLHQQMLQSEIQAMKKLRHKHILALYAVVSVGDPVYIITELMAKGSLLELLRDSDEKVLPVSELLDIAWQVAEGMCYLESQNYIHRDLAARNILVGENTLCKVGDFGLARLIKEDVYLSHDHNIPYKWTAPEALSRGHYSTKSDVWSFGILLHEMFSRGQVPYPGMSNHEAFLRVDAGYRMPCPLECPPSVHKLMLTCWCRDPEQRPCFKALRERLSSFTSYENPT
In short: as §1

CHK1(h) = target: T1, CHK1(h) (Homo sapiens, UniProt O14757)
T1 sequence (O14757 1-476): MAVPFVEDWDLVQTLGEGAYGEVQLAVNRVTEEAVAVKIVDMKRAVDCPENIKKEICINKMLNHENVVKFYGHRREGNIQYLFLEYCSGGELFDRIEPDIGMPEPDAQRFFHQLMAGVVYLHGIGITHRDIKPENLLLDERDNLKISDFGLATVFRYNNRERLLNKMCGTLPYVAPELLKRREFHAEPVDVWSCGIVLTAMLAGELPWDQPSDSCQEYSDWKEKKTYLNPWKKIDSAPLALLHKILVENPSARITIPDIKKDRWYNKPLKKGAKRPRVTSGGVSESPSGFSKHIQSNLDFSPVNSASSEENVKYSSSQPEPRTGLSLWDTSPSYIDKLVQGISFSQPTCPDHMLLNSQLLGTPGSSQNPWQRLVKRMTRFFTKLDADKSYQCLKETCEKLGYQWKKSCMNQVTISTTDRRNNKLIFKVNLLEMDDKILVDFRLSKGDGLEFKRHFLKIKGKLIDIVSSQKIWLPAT
In short: as §1

CK1δ(h) = CK1δ(h) (Homo sapiens, UniProt P48730)
Chain of CK1δ(h) (P48730 whole entry): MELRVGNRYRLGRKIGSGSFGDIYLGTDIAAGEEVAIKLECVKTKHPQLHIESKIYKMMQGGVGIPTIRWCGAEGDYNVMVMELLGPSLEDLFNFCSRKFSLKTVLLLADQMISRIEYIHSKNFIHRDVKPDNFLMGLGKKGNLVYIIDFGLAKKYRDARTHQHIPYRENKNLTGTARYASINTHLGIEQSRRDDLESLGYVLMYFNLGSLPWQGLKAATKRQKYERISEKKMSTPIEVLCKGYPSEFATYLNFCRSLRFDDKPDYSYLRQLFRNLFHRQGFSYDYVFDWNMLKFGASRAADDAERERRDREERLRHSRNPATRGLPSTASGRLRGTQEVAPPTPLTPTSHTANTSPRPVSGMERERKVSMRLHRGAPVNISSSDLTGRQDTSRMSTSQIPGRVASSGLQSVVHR
In short: as §1

EGFR(T790M,L858R)(h) = EGFR(T790M,L858R)(h) (Homo sapiens, UniProt P00533, L858R/T790M)
In short: as §1

Fgr(h) = Fgr(h) (Homo sapiens, UniProt P09769)
In short: as §1

Itk(h) = target: T2, Itk(h) (Homo sapiens, UniProt Q08881)
T2 construct: purchased Millipore
T2 sequence (Q08881 1-620): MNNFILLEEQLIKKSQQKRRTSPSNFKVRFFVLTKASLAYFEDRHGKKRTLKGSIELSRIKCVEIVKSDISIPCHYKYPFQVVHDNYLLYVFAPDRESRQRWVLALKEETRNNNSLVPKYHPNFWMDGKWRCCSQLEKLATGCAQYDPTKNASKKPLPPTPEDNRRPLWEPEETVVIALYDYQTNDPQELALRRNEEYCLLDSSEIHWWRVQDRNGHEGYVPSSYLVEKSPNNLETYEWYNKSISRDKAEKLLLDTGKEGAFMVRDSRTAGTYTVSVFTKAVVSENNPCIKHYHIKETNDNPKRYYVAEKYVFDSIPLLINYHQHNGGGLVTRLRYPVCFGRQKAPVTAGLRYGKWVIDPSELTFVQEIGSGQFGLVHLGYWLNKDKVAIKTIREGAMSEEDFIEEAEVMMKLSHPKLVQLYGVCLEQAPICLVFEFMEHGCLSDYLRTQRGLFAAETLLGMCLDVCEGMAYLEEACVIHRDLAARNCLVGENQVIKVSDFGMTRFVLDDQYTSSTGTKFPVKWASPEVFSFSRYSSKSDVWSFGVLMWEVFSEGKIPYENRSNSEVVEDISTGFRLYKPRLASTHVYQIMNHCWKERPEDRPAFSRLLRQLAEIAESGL
In short: as §1

Lck(h) activated = Lck(h) activated (Homo sapiens, UniProt P06239)
Chain of Lck(h) activated (P06239 whole entry): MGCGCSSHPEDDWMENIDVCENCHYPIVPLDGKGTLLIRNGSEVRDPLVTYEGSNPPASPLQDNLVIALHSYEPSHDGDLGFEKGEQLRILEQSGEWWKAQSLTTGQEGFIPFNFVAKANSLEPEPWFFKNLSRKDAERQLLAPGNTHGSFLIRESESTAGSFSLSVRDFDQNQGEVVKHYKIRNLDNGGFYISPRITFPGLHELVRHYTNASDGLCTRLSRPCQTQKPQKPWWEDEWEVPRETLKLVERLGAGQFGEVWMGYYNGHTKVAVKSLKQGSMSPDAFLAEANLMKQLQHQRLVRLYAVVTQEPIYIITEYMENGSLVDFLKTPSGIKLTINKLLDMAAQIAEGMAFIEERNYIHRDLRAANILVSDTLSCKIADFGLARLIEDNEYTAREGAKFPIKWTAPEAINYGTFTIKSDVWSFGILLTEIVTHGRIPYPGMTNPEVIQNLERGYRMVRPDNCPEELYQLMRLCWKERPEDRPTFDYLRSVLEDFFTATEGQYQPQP
In short: as §1

Met(D1246H)(h) = Met(D1246H)(h) (Homo sapiens, UniProt P08581, D1228H)
In short: as §1

NEK3(h) = target: T3, NEK3(h) (Homo sapiens, UniProt P51956)
T3 sequence (P51956 1-506): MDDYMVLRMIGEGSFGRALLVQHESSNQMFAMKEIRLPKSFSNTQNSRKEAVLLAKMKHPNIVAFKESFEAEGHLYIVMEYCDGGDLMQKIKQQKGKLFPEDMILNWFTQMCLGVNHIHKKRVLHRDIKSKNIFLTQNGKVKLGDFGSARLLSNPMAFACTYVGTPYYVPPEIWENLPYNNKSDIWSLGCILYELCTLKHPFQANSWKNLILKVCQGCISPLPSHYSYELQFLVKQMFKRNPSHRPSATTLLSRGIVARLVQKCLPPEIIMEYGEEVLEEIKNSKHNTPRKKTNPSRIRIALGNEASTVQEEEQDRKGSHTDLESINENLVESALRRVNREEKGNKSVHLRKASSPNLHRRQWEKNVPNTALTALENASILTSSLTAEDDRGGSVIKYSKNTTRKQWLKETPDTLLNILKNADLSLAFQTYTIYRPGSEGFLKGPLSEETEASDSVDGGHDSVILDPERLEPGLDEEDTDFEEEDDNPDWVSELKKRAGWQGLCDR
In short: as §1

Pim-1(h) = Pim-1(h) (Homo sapiens, UniProt P11309)
Chain of Pim-1(h) (P11309 whole entry): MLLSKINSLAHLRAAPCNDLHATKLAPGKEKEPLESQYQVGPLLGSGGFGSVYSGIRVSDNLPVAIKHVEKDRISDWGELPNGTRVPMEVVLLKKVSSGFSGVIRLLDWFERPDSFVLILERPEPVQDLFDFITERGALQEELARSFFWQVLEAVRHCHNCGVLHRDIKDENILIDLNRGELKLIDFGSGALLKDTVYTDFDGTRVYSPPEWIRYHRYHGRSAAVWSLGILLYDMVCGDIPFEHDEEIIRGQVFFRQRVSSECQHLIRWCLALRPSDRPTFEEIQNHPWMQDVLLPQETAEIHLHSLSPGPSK
In short: as §1

RIPK2(h) = target: T4, RIPK2(h) (Homo sapiens, UniProt O43353)
T4 construct: purchased Millipore (IC50 Profiler Express service)
T4 sequence (O43353 whole entry): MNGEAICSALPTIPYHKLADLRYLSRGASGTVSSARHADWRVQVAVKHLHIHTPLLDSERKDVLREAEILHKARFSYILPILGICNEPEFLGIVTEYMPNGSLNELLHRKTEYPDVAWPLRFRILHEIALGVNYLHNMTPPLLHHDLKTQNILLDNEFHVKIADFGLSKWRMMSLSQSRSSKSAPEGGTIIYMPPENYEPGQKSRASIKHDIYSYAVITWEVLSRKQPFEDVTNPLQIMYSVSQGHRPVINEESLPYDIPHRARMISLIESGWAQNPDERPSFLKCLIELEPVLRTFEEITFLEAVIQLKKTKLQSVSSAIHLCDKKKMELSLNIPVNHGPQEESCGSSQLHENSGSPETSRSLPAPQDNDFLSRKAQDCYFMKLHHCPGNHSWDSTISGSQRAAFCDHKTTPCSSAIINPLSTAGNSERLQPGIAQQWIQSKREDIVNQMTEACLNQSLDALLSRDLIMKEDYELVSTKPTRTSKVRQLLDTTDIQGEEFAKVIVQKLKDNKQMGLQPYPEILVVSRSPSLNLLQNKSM
In short: as §1

SGK2(h) = target: T5, SGK2(h) (Homo sapiens, UniProt Q9HBY8)
T5 sequence (Q9HBY8 1-367): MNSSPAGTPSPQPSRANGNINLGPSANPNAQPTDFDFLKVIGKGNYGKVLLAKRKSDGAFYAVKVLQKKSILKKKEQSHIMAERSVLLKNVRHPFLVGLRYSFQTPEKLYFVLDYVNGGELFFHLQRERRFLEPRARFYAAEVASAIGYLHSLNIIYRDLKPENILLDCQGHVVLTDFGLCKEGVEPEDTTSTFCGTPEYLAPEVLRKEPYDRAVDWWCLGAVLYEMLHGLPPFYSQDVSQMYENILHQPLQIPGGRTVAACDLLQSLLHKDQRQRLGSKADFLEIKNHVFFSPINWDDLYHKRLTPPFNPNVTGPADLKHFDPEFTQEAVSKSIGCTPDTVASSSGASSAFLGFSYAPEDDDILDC
In short: as §1

SIK(h) = SIK(h) (Homo sapiens, UniProt P57059)
In short: as §1

Chain of ACK1(h) (Q07912 whole entry): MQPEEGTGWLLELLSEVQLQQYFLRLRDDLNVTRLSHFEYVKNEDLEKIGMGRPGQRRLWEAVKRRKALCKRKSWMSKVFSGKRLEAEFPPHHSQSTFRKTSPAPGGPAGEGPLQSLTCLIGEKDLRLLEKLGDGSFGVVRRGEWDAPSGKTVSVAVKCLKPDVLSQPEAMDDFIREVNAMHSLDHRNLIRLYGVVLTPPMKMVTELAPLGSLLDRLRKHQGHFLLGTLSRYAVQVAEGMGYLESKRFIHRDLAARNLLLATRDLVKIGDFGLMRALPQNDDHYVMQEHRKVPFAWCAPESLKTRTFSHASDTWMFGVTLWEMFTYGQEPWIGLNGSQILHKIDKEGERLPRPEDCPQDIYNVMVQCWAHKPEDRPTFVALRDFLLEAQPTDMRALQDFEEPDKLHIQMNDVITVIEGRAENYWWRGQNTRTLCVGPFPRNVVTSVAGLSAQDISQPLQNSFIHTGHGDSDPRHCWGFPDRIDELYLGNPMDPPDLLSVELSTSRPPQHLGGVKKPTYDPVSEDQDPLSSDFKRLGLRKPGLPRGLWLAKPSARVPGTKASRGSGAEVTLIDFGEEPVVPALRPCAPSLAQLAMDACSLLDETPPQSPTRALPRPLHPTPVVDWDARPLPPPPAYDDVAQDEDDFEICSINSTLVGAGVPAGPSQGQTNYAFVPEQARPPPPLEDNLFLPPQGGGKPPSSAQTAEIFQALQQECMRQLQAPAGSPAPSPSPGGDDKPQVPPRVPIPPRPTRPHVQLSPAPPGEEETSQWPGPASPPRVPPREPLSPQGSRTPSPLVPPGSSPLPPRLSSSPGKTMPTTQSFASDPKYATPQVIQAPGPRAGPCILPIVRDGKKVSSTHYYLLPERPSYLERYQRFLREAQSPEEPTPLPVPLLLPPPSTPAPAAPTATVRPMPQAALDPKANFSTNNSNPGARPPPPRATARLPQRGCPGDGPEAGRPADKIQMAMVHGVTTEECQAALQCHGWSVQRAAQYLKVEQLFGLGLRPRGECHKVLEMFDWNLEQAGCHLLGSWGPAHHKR

| Sequence | ACK1(h) % activity (ACK1(h)) [%] | ALK(h) % activity (ALK(h)) [%] | BRK(h) % activity (BRK(h)) [%] | CHK1(h) % activity (CHK1(h)) [%] | CK1δ(h) % activity (CK1δ(h)) [%] | EGFR(T790M,L858R)(h) % activity (EGFR(T790M,L858R)(h)) [%] | Fgr(h) % activity (Fgr(h)) [%] | Itk(h) % activity (Itk(h)) [%] | Lck(h) activated % activity (Lck(h) activated) [%] | Met(D1246H)(h) % activity (Met(D1246H)(h)) [%] | NEK3(h) % activity (NEK3(h)) [%] | Pim-1(h) % activity (Pim-1(h)) [%] | RIPK2(h) % activity (RIPK2(h)) [%] | SGK2(h) % activity (SGK2(h)) [%] | SIK(h) % activity (SIK(h)) [%] |
| --- | --- | --- | --- | --- | --- | --- | --- | --- | --- | --- | --- | --- | --- | --- | --- |
| KAFAKLAARLYRKALARQLGVAA [MMI-0400] | 95 | 16 | 18 | 87 | 93 | 78 | 47 | 63 | 216 | 68 | 85 | 7 | 98 | 98 | 68 |
| YARAAARQARAKALNRQLGVA (Mammalian) [MMI-0200] | 97 | 95 | 127 | – | 92 | 108 | 71 | 98 | 90 | 139 | 100 | 18 | 98 | – | – |
| FAKLAARLYRKALARQLGVAA [MMI-0300] | – | 19 | 35 | 91 | 92 | 85 | 60 | 77 | 243 | 125 | 92 | 8 | 97 | 56 | 66 |
| HRRIKAWLKKIKALARQLGVAA (Mammalian) [MMI-0500] | 64 | 12 | 41 | 65 | 78 | 53 | – | 7 | 76 | 150 | 20 | 0 | 30 | −1 | 40 |
